Results on 54 sequences are retold here after the Immune Epitope Database (IEDB).

The first assay has as its target HLA-A*03:01. In words: IEDB peptide-MHC binding, purified MHC/competitive/radioactivity; filed as Kd, often an IC50 or EC50 that approximates it; ≥ and ≤ were set here for values at or beyond the usual limits of such assays. Conditions: source organism: Vaccinia virus WR.
The Kd is the free concentration of one partner at which half of the binding sites on the other are occupied at equilibrium, for simple one-to-one binding. Take ASLKNTISK: the Kd stood at 6.45 nM.
Turning to ASTTENAAY, the Kd was determined as 2170 nM.
As to AVNTPVSMTY, the Kd turned out to be 71.5 nM.
The same measure, in the same setting: to AVRAFLLRHY belongs 862 nM; to CICYGSYSLY, 0.434 nM.
On the same count and under the same terms, the result for CIPSRSKMLK reads 1.09 nM.
Same read-out and setting: the result for DFSKSTSPTR reads 2720 nM.
For the sequence DISKLTNFK, the Kd came out at 781 nM.
Same read-out and setting: the result for DIVNEHDIKY reads 7030 nM.
The same measure, in the same setting: to DLTALLSCIR belongs 13200 nM; to DVLEIINDK, ≥ 53500 nM.
The same measure, in the same setting: the result for EINEWLSSK reads 201 nM.
In the case of ELALTDVEKR, the Kd is ≥ 68800 nM.
Still for that read-out and setting: to ELESLSKRER belongs ≥ 70100 nM; to ELQSVLVTTY, 2000 nM.
Same read-out and setting: to EVGSIRCVK belongs 543 nM.
Same read-out and setting: the result for FFVFIHMVR reads 0.874 nM.
Take FIKPVSDLY: the Kd came to 647 nM.
On the same count and under the same terms, to FITKEIKNR belongs ≥ 78000 nM; to FMRDWNSKY, 8370 nM; to FSAGAGVLDK, 452 nM.
Same read-out and setting: to GFCIPSRSK belongs 973 nM; to GVSYEVFDDY, ≥ 70100 nM.

In the next assay the target is HLA-A*11:01. Described as above. The following applies: source organism: Dengue virus 1 Brazil/97-11/1997.
Take GSSADLSLEK: the Kd came to 76 nM.

The assay is the same for the next values; noted with them: source organism: Dengue virus 2 Jamaica/1409/1983.
Turning to AIFKLTYQNK, the Kd turned out to be 57.5 nM.
Same read-out and setting: the result for GIFLFLMSGK reads 549 nM; that for MLINRFTMK, 116 nM; that for VTRLENLMWK, 128 nM.

The same assay, now with this note: source organism: Dengue virus 2 Thailand/NGS-C/1944.
With MVLLQMENK, the Kd stood at 227 nM.

Staying with this assay, now noted: source organism: Dengue virus 3 Martinique/1243/1999.
Regarding ATTVITPMLR, the Kd came out at 222 nM.
Turning to ITANPVVTKK, the Kd was determined as 84.6 nM.

The same assay, now with this note: source organism: Dengue virus 4 Dominica/814669/1981.
For AIKILIGFRK, the equilibrium dissociation constant (Kd) came to 432 nM.

The assay is the same for the next values; noted with them: source organism: Dengue virus 4 Philippines/H241/1956.
With IVSSVNTTSK, the Kd stood at 234 nM.

Staying with this assay, now noted: source organism: Lassa virus Josiah.
Regarding ENAVWDQYK, the Kd was determined as 6640 nM.

The assay is the same for the next values; noted with them: source organism: SARS coronavirus Tor2.
AAYFVGYLK: the Kd was determined as 3.19 nM.
Still for that read-out and setting: the result for AISDYDYYR reads 65 nM; that for AVMYMGTLSY, 7.78 nM; that for CVFAYVGCY, ≥ 27500 nM.
The same measure, in the same setting: the result for DVFHLYLQY reads 10600 nM; that for GLALYYPSAR, 1120 nM.

The assay is the same for the next values; noted with them: source organism: Vaccinia virus WR.
AATIQTPTK: the Kd is 9.51 nM.
For AIITPVVFY, the Kd was determined as 0.362 nM.
On the same count and under the same terms, to AIITPVVFYR belongs 11.3 nM; to ASLKNTISK, 5.21 nM.
On the same count and under the same terms, to ASTTENAAY belongs 307 nM; to AVNTPVSMTY, 20.7 nM.
Still for that read-out and setting: the result for AVRAFLLRHY reads 1070 nM.
Take CICYGSYSLY: the Kd came to 341 nM.
Same read-out and setting: to CIPSRSKMLK belongs 4.27 nM; to DFSKSTSPTR, 4490 nM; to DISKLTNFK, 338 nM.
On the same count and under the same terms, to DIVNEHDIKY belongs 12600 nM; to DLTALLSCIR, 1560 nM.
The same measure, in the same setting: the result for DVLEIINDK reads 4580 nM; that for EINEWLSSK, 170 nM.
In the case of ELALTDVEKR, the Kd is ≥ 69800 nM.
On the same count and under the same terms, to ELESLSKRER belongs 4230 nM; to ELQSVLVTTY, 603 nM; to EVGSIRCVK, 332 nM.
On the same count and under the same terms, the result for FFVFIHMVR reads 3780 nM; that for FIKPVSDLY, 832 nM.
Still for that read-out and setting: to FITKEIKNR belongs ≥ 77900 nM; to FMRDWNSKY, ≥ 77900 nM.
Consider FSAGAGVLDK, for which the Kd is 225 nM.
GFCIPSRSK: the Kd is 1900 nM.
Same read-out and setting: the result for GVSYEVFDDY reads 504 nM.

Another assay addresses HLA-A*33:01. The description is as above. Conditions: source organism: Dengue virus 1 Brazil/97-11/1997.
With DTMTYKCPR, the Kd was 6.64 nM.

The same assay, now with this note: source organism: Dengue virus 1 Nauru/West Pac/1974.
On to ITENKIWGR, for which the Kd was 141 nM.

Staying with this assay, now noted: source organism: Dengue virus 2 Jamaica/1409/1983.
For DAIDGEYRLR, the Kd is 246 nM.
Still for that read-out and setting: the result for EDKAWLVHR reads 15.6 nM; that for IAVSMANIFR, 279 nM.

The same assay, now with this note: source organism: Dengue virus 4 Philippines/H241/1956.
For the sequence DYEVDEDIFR, the Kd is 471 nM.
On to EMGANFRAGR, for which the Kd worked out at 7.51 nM.
On the same count and under the same terms, to GYVLGIFLR belongs 39.8 nM.
Take NIVMLHTTER: the Kd came out at 83.8 nM.
Still for that read-out and setting: the result for WYMWQVKTQR reads 2.54 nM.

Still in this assay, the particulars now being: source organism: Lassa virus Josiah.
Regarding ENAVWDQYK, the Kd was determined as 958 nM.

The same assay, now with this note: source organism: Mammarenavirus guanaritoense.
As to FESLFKCLSH, the dissociation constant (Kd) is 2750 nM.

Still in this assay, the particulars now being: source organism: SARS coronavirus Tor2.
Take AAYFVGYLK: the Kd is 5550 nM.
Still for that read-out and setting: the result for AISDYDYYR reads 490 nM.
Same read-out and setting: to AVMYMGTLSY belongs 10800 nM.
In the case of CVFAYVGCY, the Kd is ≥ 20600 nM.
Still for that read-out and setting: to DVFHLYLQY belongs 5450 nM; to GLALYYPSAR, 2840 nM.

Staying with this assay, now noted: source organism: Vaccinia virus WR.
With AATIQTPTK, the Kd worked out at 1260 nM.
On the same count and under the same terms, the result for AIITPVVFY reads ≥ 45500 nM; that for AIITPVVFYR, 311 nM.
Consider ASLKNTISK, for which the Kd was ≥ 77700 nM.
On the same count and under the same terms, the result for ASTTENAAY reads 3880 nM.
Still for that read-out and setting: to AVNTPVSMTY belongs ≥ 70000 nM; to AVRAFLLRHY, ≥ 70000 nM.
On the same count and under the same terms, to CICYGSYSLY belongs 2040 nM.
Turning to CIPSRSKMLK, the Kd was found to be 63.2 nM.
The same measure, in the same setting: to DFSKSTSPTR belongs 1040 nM; to DISKLTNFK, 48 nM.
Take DIVNEHDIKY: the dissociation constant (Kd) was ≥ 46100 nM.
On the same count and under the same terms, to DLTALLSCIR belongs 76.8 nM.
For DVLEIINDK, the dissociation constant (Kd) was 719 nM.
As to EINEWLSSK, the Kd was found to be 18.6 nM.
Same read-out and setting: to ELALTDVEKR belongs 16800 nM; to ELESLSKRER, 12600 nM; to ELQSVLVTTY, ≥ 61800 nM.
Same read-out and setting: to EVGSIRCVK belongs 83 nM; to FFVFIHMVR, 0.46 nM.
The same measure, in the same setting: to FIKPVSDLY belongs 501 nM.
Consider FITKEIKNR, for which the Kd was determined as 6040 nM.
On to FMRDWNSKY, for which the Kd was ≥ 66300 nM.
Consider FSAGAGVLDK, for which the Kd is 350 nM.
Regarding GFCIPSRSK, the Kd was ≥ 77700 nM.
On to GVSYEVFDDY, for which the Kd is ≥ 70000 nM.
